Measured values: the DeepSol protein solubility set

Experiment: soluble on expression in E. coli; label from the status in PepcDB or PDB records

Sequence | soluble on expression in E. coli
MSIEVPISIPKTLIIIPAYNEEEAIADTLTRLLELKQHFTALSICVINDGSQDKTAQIVKNFPVHLINLPYNLGIGSAVQTGYKYAYENGYDIAIQFDADGQHNPDDLYKIIQPIAEGQCDMVLGSRFTEKTAYKGSISRRIGIFYFTALLKVLTKQTFMDPTSGYRAINREVITIFAHNYPKDYPEPEVLIHLKKKKLRINEISVNMQERQGGQSSITPLKSAYYMIKVSLAILMQKIVKGLEHHHHHH | not soluble
SLKDELANIPGIQFVDHVAIAVKQGDLEGQVAAYKMLGFTEVHREDVLGGDQVREVLLRIGDGPNLIQLLEPLNASSPVQKLIEKNGGRGGFAHVAFRVRNARESFDAMTAQGFHIIDKAPRKGSRGTTVFFVHPKSLDSAPFGFLIEIVEEPVEG | soluble
MPESIFKQISLDILKLHRDSVYSLLATSGCNCQVHEAAYVNIDGKYYIALSCEPEVGEVKTGILLIEDESRNLRLSWVGSARELDCKDNAYKRALSALSRKLGRCKDRLHTAVQPFLLELVPEKGRFSVGDEEVWISRNDLVRALYPVGYSMRQAVFQI | not soluble
MGSDKIHHHHHHMLIKTVLNKFERFKSFIYGDCRLAKVGGSEALVIDIKARRNSKPECPECGKRGKTYDTQPARLFEYVPIWAFKVFFRYAPRRVLCPIHGVKVESLPWGYGKEQMTISYQVYLARWARRLSWKEVAEIFKTSWDSIFRAVQYAVDYGLANRNLDGVTEIGVDEIAVFKGHQYLTMVYQLNAGVRRLLWCGPQRRIRTLLRFFREFGKERSAKLKYVCSDMWAPYLKVIAKRAPNAVNILDRFHIMRKFNEAIDEVRRTEAKEFKAAKQENVLEKGRWLLLKRPENLSEKQTSRLGDLLKLNLSSIKAYLLREDFQQFWDYQRSDFAGKFLDDWVIRTMQTDLEPMKKVARMLRNHKPMILNWFKAKGRLSSGAVEGLNLKAKLTIRKAYGFRTIKCLQVALYHTLGDLPEPLCHHRFC | not soluble
MNSENSFSSSEHITVLLHEAVNGLALKENGIYIDGTFGRGGHSRFILSQLSSNGRLIAVDRDPRAIAEAHKIQDLRFQIEHNSFSHIPEICDKLNLVGKIDGILLDLGVSSPQLDEAERGFSFMKDGPLDMRMDTTQGLSAEEWLKQVSIEDLTWVLKTFGEERFAKRIATAIVDFNKSAVKNGTEFLSRTSQLAELISQAVPFKDKHKHPATRSFQAIRIFINSELDELESLLNSALDMLAPEGRLSIISFHSLEDRMVKHFMKKQSKGEDIPKGLPLREDQIQRNQKLRIIGKAIQPSDAEIQANPRSRSAILRVAERILEHHHHHH | soluble
MIPKSTGYLADLNIHWKNYIQYLHKIEVAPKTKLQLLHDVANRIFIVESGSVRMGFEKDGKDITLQFFFEDELVASVESLFNQTPSKYFIETIEHSTIYYLTKEMLEVMALKLPEMANITQDILMSRLIYYSNHLHSYISETPEQRFNKLIETRPYIFMRVSQRHIASYLGITNVSLSRIKARKSVVYDQQPATVSVAEADNEEYLKS | not soluble
SSDVTFLVEGRPFYAHKVLLFTASPRFKALLSSKPTNDNTCIEIGYVKYPIFQLVMQYLYYGGPESLLIKNNEIMELLSAAKFFQLEALQRHCEIICAKSINTDNCVDIYSHAKFLGVTELSAYCEGYFLKNMMVLIENEAFKQLLYDKNGEGAGQDVLQDLQRTLAIRIQSIHLSSSKGSVV | soluble
MASVPENQAPKAIFTFSPEDPVTDENVVFNASNSIDEDGTIAYYVWDFGDGYEGTSTTPTITYKYKNPGTYKVKLIVTDNQGASSSFTATIKVTSATGDNSKFNFEDGTLGGFTTSGTNATGVVVNTTEKAFKGERGLKWTVTSEGEGTAELKLDGGTIVVPGTTMTFRIWIPSGAPIAAIQPYIMPHTPDWSEVLWNSTWKGYTMVKTDDWNEITLTLPEDVDPTWPQQMGIQVQTIDEGEFTIYVDAIDWLEHHHHHH | soluble
AQRVKDRPDGDTRRSELTMKLINKRGAVRERKLISYSIDMGKDKKDKKTIMFFLYPGDVKGTGFLTWDYDQIGKDDDKWLYLPAMKKTRRISGASAKKDYFMGSDFTYDDMGSRNVDEDTHKLLGEETFDGHKCWKLESTSKDQRDVFSKKIAWIRQDCLIPVRVEYYDRMNRLHRLLELSDIAQVDGFWMAQKMNMSNVQTGHRTVLEIKKPEFNRPIDESKFTVTSLEK | not soluble
MTSVLNSFWLGIKVPLRKAVYWLQYNLLKRKRNAFNILMAEETIDYIVKHECSVCRYGDGEIDMITCLKEGFDESRKSDFQTYDEKLAWRLKQILGNGSDEELNLIVCIPYVWKSHRSLSFTARRFIERSFVNNREMIFASIHPTRLYGDSYFTRFYIDARNKKKKGSYIQHCRQIWQGRDLCIIEGEQSRLGVGNDLFDNAQSIERILCPALDAFAKYDEIMKAACTVNKAKLVLIALGHTATVLAYDLAEVGYQAIDIGHIDIEYEWFLMRAPKKVPVPHKYVNEVPEGRQFSEERNKEYLSQIIYSVK | not soluble
MAHMVNGKVALVTGAAQGIGRAFAEALLLKGAKVALVDWNLEAGVQCKAALHEQFEPQKTLFIQCDVADQQQLRDTFRKVVDHFGRLDILVNNAGVNNEKNWEKTLQINLVSVISGTYLGLDYMSKQNGGEGGIIINMSSLAGLMPVAQQPVYCASKHGIVGFTRSAALAANLMNSGVRLNAICPGFVNTAILESIEKEENMGQYIEYKDHIKDMIKYYGILDPPLIANGLITLIEDDALNGAIMKITTSKGIHFQDYGSKENLYFQ | soluble
MINSKVKPQAVVADAHEDTIRSLYMESLHLVERLHRRLLDVIKDEFDRQGRDDVNAVQALLLFNIGNSELTAGELRSRGYYLGSNVSYNVKKLVDLGLINHQRSRVDRRSVRISLTEEGQAIAETVARLYERHVGSIEKVGGIGTGEFSEMNKLLQRLDRFWNDSIAYRL | not soluble
MMMLPEACIANILAFTSPADAFSSSEVSSVFRLAGDSDFVWEKFLPSDYKSLISQSTDHHWNISSKKEIYRCLCDSLLIDNARKLFKINKFSGKISYVLSARDISITHSDHASYWSWSNVSDSRFSESAELIITDRLEIEGKIQTRVLSANTRYGAYLIVKVTKGAYGLDLVPAETSIKSKNGQISKSATYLCCLDEKKQQMKRLFYGNREERMAMTVEAVGGDGKRREPKCRDDGWMEIELGEFETREGEDDEVNMTLTEVKGYQLKGGILIDGIEVRPKT | soluble
MLNQELELSLNMAFARAREHRHEFMTVEHLLLALLSNPSAREALEACSVDLVALRQELEAFIEQTTPVLPASEEERDTQPTLSFQRVLQRAVFHVQSSGRNEVTGANVLVAIFSEQESQAAYLLRKHEVSRLDVVNFISHGTRKDEPTQSSDPGSQPNSEEQAGGEERLENFTTNLNQLARVGGIDPLIGREKELERAIQVLCRRRKNNPLLVGESGVGKTAIAEGLAWRIVQGDVPEVMADCTIYSLDIGSLLAGTKYRGDFEKRFKALLKQLEQDTNSILFIDEIHTIIGAGAASGGQVDAANLIKPLLSSGKIRVIGSTTYQEFSNIFEKDRALARRFQKIDITEPSIEETVQIINGLKPKYEAHHDVRYTAKAVRAAVELAVKYINDRHLPDKAIDVIDEAGARARLMPVSKRKKTVNVADIESVVARIARIPEKSVSQSDRDTLKNLGDRLKMLVFGQDKAIEALTEAIKMARAGLGHEHKPVGSFLFAGPTGVGKTEVTVQLSKALGIELLRFDMSEYMERHTVSRLIGAPPGYVGFDQGGLLTDAVIKHPHAVLLLDEIEKAHPDVFNILLQVMDNGTLTDNNGRKADFRNVVLVMTTNAGVRETERKSIGLIHQDNSTDAMEEIKKIFTPEFRNRLDNIIWFDHLSTDVIHQVVDKFIVELQVQLDQKGVSLEVSQEARNWLAEKGYDRAMGARPMARVIQDNLKKPLANELLFGSLVDGGQVTVALDKEKNELTYGFQSAQKHKAEAAH | soluble
MKVSQVFISAISVFGLATSVNAQNASNTTSNAAPALHAQNGQLLNAGVVGAAVGGALAFLI | soluble
MSLASLIGLAVCTGNAFSPALAAEAKQPNLVIIMADDLGYGDLATYGHQIVKTPNIDRLAQEGVKFTDYYAPAPLSSPSRAGLLTGRMPFRTGIRSWIPSGKDVALGRNELTIANLLKAQGYDTAMMGKLHLNAGGDRTDQPQAQDMGFDYSLANTAGFVTDATLDNAKERPRYGMVYPTGWLRNGQPTPRADKMSGEYVSSEVVNWLDNKKDSKPFFLYVAFTEVHSPLASPKKYLDMYSQYMSAYQKQHPDLFYGDWADKPWRGVGEYYANISYLDAQVGKVLDKIKAMGEEDNTIVIFTSDNGPVTREARKVYELNLAGETDGLRGRKDNLWEGGIRVPAIIKYGKHLPQGMVSDTPVYGLDWMPTLAKMMNFKLPTDRTFDGESLVPVLEQKALKREKPLIFGIDMPFQDDPTDEWAIRDGDWKMIIDRNNKPKYLYNLKSDRYETLNLIGKKPDIEKQMYGKFLKYKTDIDNEGHHHHHH | not soluble
MSLGQYDMQLIMGRTRWNGEFIGFERSTEKGVFSSNLKTEFMVELAESGGVGVFLNRRRVAALSLDGSRRALEAVLSCQKAFMTAQSDTRDEPSTDTKPKRHTKSSGTGFYVSDSGHIVTNHHVIAECSTINVLPPGGAAVSATLVAKDKTNDLAILKTASSPAAIPGLRSQMRLGEAVYVFGFPLTGILSTSGNFTAGAITATTGMEDDTRLAQISAPVQPGNSGGPLLDKYGNVIGVIVSKLNALNIAAATKDIPQNVNFAIKTGIATNFLDSSGVVPTGKVSTRELAPEAIADLAKIFTVQVLCNEGHHHHHH | not soluble
MKILVAVKQTAALEEDFEIREDGMDVDEDFMMYDLNEWDDFSLEEAMKIKESSDTDVEVVVVSVGPDRVDESLRKCLAKGADRAVRVWDDAAEGSDAIVVGRILTEVIKKEAPDMVFAGVQSSDQAYASTGISVASYLNWPHAAVVADLQYKPGDNKAVIRRELEGGMLQEVEINCPAVLTIQLGINKPRYASLRGIKQAATKPIEEVSLADIGLSANDVGAAQSMSRVRRMYIPEKGRATMIEGTISEQAAKIIQIINEFKGA | soluble
LRANKPVFKNAGATLHDIGDGIVNLEFHTKMNTLGGEVVDAINRSIGIAEKDFQGIVIGNDGANFSAGANLALVLMYAIEQEYDEIDFMIRAFQNTMMRARYSSIPVVVAPHNLTLGGGCEMTLHADHVQAFAETYIGLVEFGVGLIPAGGGTKEFTLRVSDSFEDGDIQVNNLKNMYMHIATAKVATSAEEARSMGILRKSDGITLNRSRLIADAKAAAISLAEAG | not soluble
MGSSHHHHHHGGTGENLYFQGGSGLRQFIVPVRQTTQRAGLATPPLFGVQKCYVNMNRSVQTRWEIDSQTASQKRTEYDFDKEQWMKQMRFASMDCIMDPDITPIRYTSVAGVKKAFRRFVTMRKLMDRRPDFDPVQLKELFIHFKTLSHEKSPDCFKTLQRITTHGEADRILKEIKGRMNEDFAKKSWRSLKQQGAKSTYEMEVDSFDLVTCYMGQMSQEDWLQITYRCEFRQRESKEYDWETMMEYPVFEVRLGDGVKAPNTHPFIVVGVLKKDGTRYGKDSQDAADLRKQFDRTGRWF | not soluble
MVHPAFQVFTDALRQRFGEALDAVVLYGSCLHTSDLTEGIADFYVLVSDYRLAYSGRLLAGLNAWLPPNVFYLEVPAAAGVMRAKYAVISTADFERGARQWFHPYIWARFAQPARLLYARDDQTGKRVHTAQASAVLKFISTTLPVLESGPSDLEMIWASGLMLTYAAELRAEREARARHLVRIDPEIYSRLTAAAMPALIPLLSLQADGRYHIGPITPLKRLSARIHWRLRRWQGRVLSVLRLSKATMTFRDCLDYAAWKIERHTGIKVEITPMLRRHPILWGYKVMWQLLRRGVLRLEHHHHHH | not soluble
